Assay results as given in patent publication US20150010525A1, “Catalytic Tagging System to Study Macro-Molecular Interactions Using Engineered Ubiquitin Ligase and Ubiquitin-Like Proteins to Facilitate Substrate Identification” (THE REGENTS OF THE UNIVERSITY OF CALIFORNIA, priority 2012, published 2015).

Biological target: T1, cIAP1 (Homo sapiens, UniProt P61081+Q13490)
T1 construct: cIAP1(ΔR) (residues 1-555); GST (N, cleaved yes); made in house; host or cells: E. coli BL21 (DE3)
Experiment: SILAC mass spectrometry screen for cIAP1 substrates with NEDDylator^cIAP1 in apoptotic Jurkat cell lysate
Format: biochemical
Details: Light lysate with NEDDylator^cIAP1, Heavy lysate with Ubc12
Protocol: Jurkat cells were grown in media containing either light or heavy isotopes of lysine and arginine and induced to undergo apoptosis with STS. Light cell extracts were incubated with the respective catalytic tagging system for each of the two IAPs and the heavy extracts labeled only with the wild-type NEDD8 E2, Ubc12. […] 100 mg ^13C6^15N2 L-Lys.2HCl and 86 mg ^13C6 L-Arg.HCl (Cambridge Isotope) were added to the same amount of medium to generate the “Heavy” medium. Jurkat cells were cultured separately in “Light” or “Heavy” medium for 7 days to allow for thorough isotope incorporation. For IAP substrate identification, 400 million cells were treated with 2 μM STS for 4 hours, harvested, lysed in M-PER mammalian protein extraction buffer (Thermo/Pierce) in the presence of protease inhibitors (100× ProteoBlock cocktail, Fermentas) and mixed with cell lysate prepared from 400 million untreated cells. […] Purified NEDDylated proteins were trypsinized and analyzed with tandem mass spectrometry (LC-MS/MS).
For SILAC experiments, Jurkat cells were cultured separately in “Light” (supplemented with regular Lys and Arg) or “Heavy” (supplemented with ^13C6^15N2 Lys and ^13C6 Arg) medium for 7 days to allow for thorough isotope incorporation. Apoptotic “Light” and “Heavy” cell extracts were prepared individually. The lysates were cleared by spinning and then diluted in 50 mM HEPES pH 7.4, 150 mM NaCl to 5 mg/ml and supplemented with 5 mM ATP, 10 mM MgCl2. Endogenous NEDD8 E1 is cell lysate was used to catalyze the reaction. HB-NEDD8 was added to both lysate at mass ratio 1:500; the catalytic tagging system was added to the “Light” lysate at mass ratio 1:1000. Equal molar of Ubc12 was added to the “Heavy” lysate. […] NEDDylated proteins were separated by one-dimensional SDS-PAGE, and trypsinized for LC-MS/MS analysis.
For liquid chromatography—Tandem mass spectrometry (LC-MS/MS) analysis, the tryptic peptides were first desalted and concentrated with a C18 Ziptip (Millipore). LC-MS/MS was carried out by reverse phase LC interfaced with a LTQ-Orbitrap (ThermoFisher Scientific) hybrid mass spectrometer. A nanoflow HPLC (NanoAcquity UPLC system, Waters Corporation) was equipped with a trap column (180 μm×20 mm, 5 μm SymmetryC18, from Waters) and an analytical column (100 μm×100 mm, 1.7 μm BEH130C18, from Waters). Peptides were eluted over a linear gradient from 2% solvent A (0.1% formic acid in water) to 35% solvent B (0.1% formic acid in acetonitrile) at 350 nL/min over 35 min. MS and MS/MS spectra were acquired in a data-dependent mode with MS spectra acquired in the Orbitrap at 30,000 resolving power and 6 CID MS/MS spectra acquired per MS in the LTQ linear ion trap. Dynamic exclusion was set at 90 seconds to prevent repeated MS/MS on the same precursor ion.
The identified peptides were searched against a random decoy protein database for evaluating the false positive rates. […] The decoy peptides were removed from the data. Protein IDs were assigned only when at least two unique peptides were identified from the same protein. For SILAC experiment, Light/Heavy ratios for the identified peptides were calculated, using ProteinProspector. The media Light/Heavy ratios of all the peptides identified for each protein were used to represent the Light/Heavy ratio of the protein.

T1 sequence (Q13490+P61081 fused): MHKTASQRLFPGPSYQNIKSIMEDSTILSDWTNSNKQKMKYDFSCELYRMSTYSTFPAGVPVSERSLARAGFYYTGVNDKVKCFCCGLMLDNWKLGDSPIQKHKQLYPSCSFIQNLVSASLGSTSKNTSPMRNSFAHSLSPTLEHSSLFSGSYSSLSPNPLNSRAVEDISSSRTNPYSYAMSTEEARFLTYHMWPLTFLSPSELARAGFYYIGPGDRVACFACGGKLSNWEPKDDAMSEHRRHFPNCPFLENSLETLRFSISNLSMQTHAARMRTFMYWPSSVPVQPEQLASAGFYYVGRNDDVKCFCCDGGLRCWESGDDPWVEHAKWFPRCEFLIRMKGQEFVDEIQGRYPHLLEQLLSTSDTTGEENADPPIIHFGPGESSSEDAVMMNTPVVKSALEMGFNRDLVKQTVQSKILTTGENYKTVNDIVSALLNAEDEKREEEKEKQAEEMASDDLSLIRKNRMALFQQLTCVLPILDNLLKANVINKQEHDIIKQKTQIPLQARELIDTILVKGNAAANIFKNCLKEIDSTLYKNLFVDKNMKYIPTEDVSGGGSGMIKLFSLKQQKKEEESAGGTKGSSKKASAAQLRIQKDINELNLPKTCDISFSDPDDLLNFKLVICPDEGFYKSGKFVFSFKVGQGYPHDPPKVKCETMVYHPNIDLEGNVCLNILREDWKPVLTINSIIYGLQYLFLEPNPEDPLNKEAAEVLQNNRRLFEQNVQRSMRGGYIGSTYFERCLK

Row | Molecule | L/H (Light/Heavy ratio)
1 | Non-POU domain-containing octamer-binding protein: potential cIAP1 substrate | 7.52
2 | Isocitrate dehydrogenase [NAD] subunit beta, mitochondrial: potential cIAP1 substrate | 14
3 | Hemoglobin subunit alpha: potential cIAP1 substrate | 5.22
4 | ELAV-like protein 1: potential cIAP1 substrate | 8.78
5 | Putative annexin A2-like protein: potential cIAP1 substrate (protein, UniProt A6NMY6 2-339, looked up) Putative annexin A2-like …: STVHEILCKLSLEGDHSTPPSAYGSVKAYTNFDAERDALNIETAIKTKGVDEVTIVNIVTNRDNAQRQDIVFSYQRRTKKELASALKSALSGHLETVILGLLKTPAQYDASELKASMKGLGTDEDSLIEIICSRTNQELQEINRVYKEMYKTDLEKDIISDTSGDFRKLMVALAKGRRAEDGSVIDYELIDQDAQDLYDAGVKRKGTDVPKWISIMTERSVPHLQKVFDRYKSYSPYDMLESIRKEVKGDLENAFLNLVQRIQNKPLYFADQLYDSMKGKGTRDKVLIRIMVSRSEVDMLKIRSEFKRKYGKSLYYYIQQDTKGDYQKALLYLCGGDD | 8.75

More lines, now with the values ahead:

Row | L/H (Light/Heavy ratio) | Molecule
6 | 26.9 | TAR DNA-binding protein 43: potential cIAP1 substrate
7 | 5.21 | Glyceraldehyde-3-phosphate dehydrogenase: potential cIAP1 substrate
8 | 4.15 | Heterogeneous nuclear ribonucleoprotein U: potential cIAP1 substrate
9 | 5.31 | Eukaryotic initiation factor 4A-I: potential cIAP1 substrate
10 | 20.7 | Heterogeneous nuclear ribonucleoprotein A0: potential cIAP1 substrate (protein, UniProt Q13151 1-305, looked up) Heterogeneous nuclear …: MENSQLCKLFIGGLNVQTSESGLRGHFEAFGTLTDCVVVVNPQTKRSRCFGFVTYSNVEEADAAMAASPHAVDGNTVELKRAVSREDSARPGAHAKVKKLFVGGLKGDVAEGDLIEHFSQFGTVEKAEIIADKQSGKKRGFGFVYFQNHDAADKAAVVKFHPIQGHRVEVKKAVPKEDIYSGGGGGGSRSSRGGRGGRGRGGGRDQNGLSKGGGGGYNSYGGYGGGGGGGYNAYGGGGGGSSYGGSDYGNGFGGFGSYSQHQSSYGPMKSGGGGGGGGSSWGGRSNSGPYRGGYGGGGGYGGSSF
11 | 8.76 | Rho GDP-dissociation inhibitor 2: potential cIAP1 substrate (protein, UniProt P52566 2-201, looked up) Rho GDP-dissociation …: TEKAPEPHVEEDDDDELDSKLNYKPPPQKSLKELQEMDKDDESLIKYKKTLLGDGPVVTDPKAPNVVVTRLTLVCESAPGPITMDLTGDLEALKKETIVLKEGSEYRVKIHFKVNRDIVSGLKYVQHTYRTGVKVDKATFMVGSYGPRPEEYEFLTPVEEAPKGMLARGTYHNKSFFTDDDKQDHLSWEWNLSIKKEWTE
12 | 22.2 | Pre-mRNA-processing factor 19: potential cIAP1 substrate (protein, UniProt Q9UMS4 2-504, looked up) Pre-mRNA-processing factor 19: SLICSISNEVPEHPCVSPVSNHVYERRLIEKYIAENGTDPINNQPLSEEQLIDIKVAHPIRPKPPSATSIPAILKALQDEWDAVMLHSFTLRQQLQTTRQELSHALYQHDAACRVIARLTKEVTAAREALATLKPQAGLIVPQAVPSSQPSVVGAGEPMDLGELVGMTPEIIQKLQDKATVLTTERKKRGKTVPEELVKPEELSKYRQVASHVGLHSASIPGILALDLCPSDTNKILTGGADKNVVVFDKSSEQILATLKGHTKKVTSVVFHPSQDLVFSASPDATIRIWSVPNASCVQVVRAHESAVTGLSLHATGDYLLSSSDDQYWAFSDIQTGRVLTKVTDETSGCSLTCAQFHPDGLIFGTGTMDSQIKIWDLKERTNVANFPGHSGPITSIAFSENGYYLATAADDSSVKLWDLRKLKNFKTLQLDNNFEVKSLIFDQSGTYLALGGTDVQIYICKQWTEILHFTEHSGLTTGVAFGHHAKFIASTGMDRSLKFYSL
